Laboratory results from paper PMC8551123, “Pentose degradation in archaea: Halorhabdus species degrade D-xylose, L-arabinose and D-ribose via bacterial-type pathways” (Extremophiles, 2020).

Legend:
[1] = molecular target: Ribokinase of Halorhabdus tiamatea (HTIA_0439) (Halorhabdus tiamatea); test: SEC; Superdex 200 HiLoad column (1.6 by 60 cm), flow rate 1 ml/min, calibrated with the HMW and LMW kits; oligomeric state from the native mass and the calculated subunit mass
[2] = molecular target: Ribose-5-phosphate isomerase of Halorhabdus utahensis (Huta_0832) (Halorhabdus utahensis); test: as above
[3] = molecular target: the molecule itself; test: as above
[4] = substrate: Nc1ncnc2c1ncn2[C@@H]1O[C@H](COP(=O)(O)OP(=O)(O)OP(=O)(O)O)[C@@H](O)[C@H]1O; test: coupled pyruvate kinase/lactate dehydrogenase assay (NADH); assay type: biochemical, Halorhabdus utahensis; settings: 37 °C
[5] = substrate: O=C(CO)[C@@H](O)[C@H](O)CO; test: as above; assay type: biochemical, Halorhabdus utahensis; settings: ATP co-substrate (12.5 mM standard), 37 °C, pH 8.0, 2 M KCl, 10 mM MgCl2
[6] = substrate: Nc1ncnc2c1ncn2[C@@H]1O[C@H](COP(=O)(O)OP(=O)(O)OP(=O)(O)O)[C@@H](O)[C@H]1O; test: as above; assay type: biochemical, Halorhabdus tiamatea; settings: D-ribose co-substrate (5 mM standard), 42 °C, pH 7.5 bis-tris, 1.5 M KCl, 10 mM MgCl2
[7] = substrate: O=C(CO)[C@@H](O)[C@@H](O)CO; test: as above; assay type: biochemical, Halorhabdus utahensis; settings: ATP co-substrate (10 mM standard), 37 °C, pH 8.0, 1.5 M KCl, 50 mM MgCl2

“Ribokinase of Halorhabdus tiamatea (HTIA_0439) (enzyme)” showed a stoichiometry N [1] of 2.

For “Ribose-5-phosphate isomerase of Halorhabdus utahensis (Huta_0832) (enzyme)”, the stoichiometry N [2] was 4.

B1: Xylulokinase of Halorhabdus utahensis (Huta_2446) (enzyme, UniProt C7NMH3 1-515, looked up)
chain: MGLDLGTSGVKTLVADADGEVLATNTEEYPLYQPEVGWSEQDPADWWAATLDGIEAVLEDPAVDPEDVEALGLTGQMHGSVFLDGEGEVLRPAILWNDTRTSAQCDEIEERVGEDRIIELASNPPFEGFTAPKILWVQEHEPEVYDQTESILLPKDFIRYKLTEAFATDVSDASGTLLLDVGERDWSPEILDELDISRDLLPEVYESPEVTGAVTDAVAERTGLPAGTPVVAGAGDNAAGAVGSGVVGDGDVWGSIGTSGVIFVATDDERTDPEGRVHTFCHAVPDTWHVMGVMLSAGGAFSWFSETLGGPEEVVADQLGKDAFEVLTDEAATVDPGSEGLIFLPYLNGERTPHRDADARGAFFGLSTRHDKSHVVRSVLEGVTYGLRDSFRIVRDDLGVDTGQLKAAGGGAKSPLWKQIQADIFDAEILTPNVDEGPAYGSALLAGVGADVYDNVADATEQAVDIVDSVEPIDQHTRVYDEYYEIYESLYPALEDSFAANSAAIESAQDILDEA
notes: xylulokinase, Halorhabdus utahensis, gene Huta_2446 (1548 nucleotides); calculated subunit mass 55.1 kDa; Gene amplified from genomic DNA and cloned into pTA963; source: Haloferax volcanii H1209, purified (Ni-NTA, size-exclusion chromatography, Phenyl-Sepharose)
B1 was tested, and the “stoichiometry N” value [3] was 2, the Km ([4]; D-xylulose co-substrate (10 mM standard), pH 8.0, 2 M KCl, 10 mM MgCl2) was 5680 µM and the Km [5] was 310 µM.

B2: ribokinase (HTIA_0439) (Halorhabdus tiamatea SARL4B) (protein)
chain: MGNVYVAGSINQDIAVRLERRPQPGETVPGESASFGLGGKGANQAIAAARSGAAVELIGAVGDDRFGEELLADLDTEDGLSTAGVHRASNTSTGVALITVDADSENAIVAVPGANAALAPADVGDVGMEDDAVVLSQFEIPQPTIRTFFEQAHAQGARTVLNPAPAETVREDLLERVDFLVVNETEALFYADGDSKGQLSQDELVETAAALRTHDEQVVVVTLGEAGVFASTPSETIELDAYAVDPVDTTGAGDAFVGAFATALGDGLRLRDALDVGAAAGALATTQTGAAPSLPTRAAIEDLRADE
notes: full length, overexpressed, recombinant (Haloferax volcanii H1209, pTA963, His tag by general methods)
B2 was tested, and the Km [6] was 100 µM.

B3: Arabinose isomerase of Halorhabdus utahensis (Huta_1154) (enzyme, UniProt C7NML7 1-495, looked up)
chain: MSPIPHGTDFDDLEVWFLTGSQHLYGEETLDLVAEDAREVAAGLDDDDRIPVSVEFKSVLTTADAIESVVREANASEDCIGLITWMHTFSPAKMWIRGLQALDVPFVHLHTQFNRELPYDEIDMDFMNANQSAHGGREFGHIVSRLDIDRKVVVGHWEDDDVREQLDTWARAAAARHELRGAKIARFGDNMRDVAVTEGDKVSAQMAFGASVDGYGLGDLVEFVEDVTESEIDDLLEEYDQQYELAAELQADGDRRDSLREAARIELGIRAFLEDGEFVGFTTTFENLTGLSQLPGLAVQRLMADGYGFGPEGDWKSALLTRAMKVMGQGLNGGTSLMEHYTYDLTEGDEKVLGAHMLEICESIAGEQPRLEIHPLDIGGKADPVRAVFDADTGPAINASLVDMGDRFRLITNDVESVGPDEPLPELPVARAVWKPEPDFETAIEAWIKAGGAHHTGYSQAVTNEHLEDFASMTGIEHLHVGADTDIADVERKLS
notes: arabinose isomerase, Halorhabdus utahensis, gene Huta_1154 (1488 nucleotides); calculated subunit mass 55.4 kDa; Gene amplified from genomic DNA and cloned into pTA963; source: Haloferax volcanii H1209, purified (Ni-NTA, size-exclusion chromatography)
For B3, the “stoichiometry N” value [3] was 6.

B4: Xylose isomerase of Halorhabdus utahensis (Huta_2443) (enzyme, UniProt C7NMH0 1-438, looked up)
chain: MSEYFPEIDEITYEGPDSQDPLSFSYYDPEKQVGEKTMAEHLRFSVAYWHTLREDGSDPFGAGTMQRPWDDIDDPMEKAHARVDAAFEFFEKLGVPYFCFHDRDIAPKGEDLAESNENLDEIVDHVEEKIDETGVELLWGTAQLFMEPKFAHGAATSPNPDVFAHAAGQVKKAMEVTERLGGENFVFWGGREGYKTLLNSDMGRELDNMGRFFRMAADYADDIGFDGQLLIEPKPKEPTKHQYDFDAANVMAFLREYGLEDRFNLNLEANHATLAGHTFRHELQYARVNDALGSVDANQGDKLIGWDTDEFPTDVYMTTLAMYEVLENDGIAPGGLNFDAKVRRESFEPVDLFYGHVVGMDTFARGLEVAHELREDGVFADVIDDRYGYDAGIGAEIAAESTDFEALAEYALENDGIELESGRQEKLKAVLNSYILES
notes: xylose isomerase, Halorhabdus utahensis, gene Huta_2443 (1317 nucleotides); calculated subunit mass 49.3 kDa; Gene amplified from genomic DNA and cloned into pTA963; Elution from Ni-NTA implies a His tag; also called class II xylose isomerase; source: Haloferax volcanii H1209, purified (Ni-NTA, size-exclusion chromatography)
B4 was tested, and the “stoichiometry N” value [3] was 4.

B5: Ribulokinase of Halorhabdus utahensis (Huta_1150) (enzyme, UniProt C7NMB8 1-512, looked up)
chain: MDGQYLVGTDIGTNSTKTILVSPEGEVLGTGNAGYEVEQPEPSWAQQWPDVWVEATYDSIQQAIDEAEVDPSEIRGISISSLYGGAGVPLDSEGEPVYPCLIWMDRRATDQVEWVKENVDLDRLFEITGNYVDSYYGYTKIRWIKEHEPEVWDDIENFVPPNNYVEYVMTDELAVDYSSAGNVGGVFDIHDLAWSEEACEMLEIPIEKFPERLVPTEEIVGEVTADAAEASGLPEGTPVLAGGVDAPMATLAAGAFEEGDNVSMMGTSTCWGTIHEGAGLDQQLVSMPHVAEGEEKIYTWGGSATTGGLIEWFKDEFGGPEEQAGELVDVDPFELLNMKAEEIPAGSEGLVALPYFKGERSPIWDPDARGMFTGLSLYHGKSHMYRALMEAGGYSLRHNVEVAEEIGIPLNDETSVVGGVSNSELWMQILADVTGRRMEVPAGGVGAPLGDALVVGVGTGLFEDYDVATEWTETGEVYTPEPENVDTYDEYYDIYKRLYQNTKDEMHDLAQL
notes: ribulokinase, Halorhabdus utahensis, gene Huta_1150 (1539 nucleotides); calculated subunit mass 56.1 kDa; Gene amplified from genomic DNA and cloned into pTA963; also called L-ribulokinase; source: Haloferax volcanii H1209, purified (Ni-NTA, size-exclusion chromatography)
In the case of B5, the “stoichiometry N” value [3] is reported as 6, the Km ([4]; L-ribulose co-substrate (1 mM standard), pH 8.0, 1.5 M KCl, 50 mM MgCl2) is reported as 4200 µM and the Km [7] is reported as 550 µM.
